# According to patent US20170218369, “AN ANTAGONISTIC PD-1 APTAMER AND ITS APPLICATIONS IN CANCER THERAPY RELATED APPLICATIONS” (Academia Sinica, published 2017):
# B1: PD100 (5'-biotin) (ssDNA)
# DNA: TCCCTACGGCGCTAACCCTCCCCTAGTATATATTGTCCTCGTCTATGCCACCGTGCTACAAC
# B2: PD16 (ssDNA)
# DNA: TCCCTACGGCGCTAACTGATCACAAGAATAACTATCCCATCTCCCTGCCACCGTGCTACAAC
# B3: PD7 (ssDNA)
# DNA: TCCCTACGGCGCTAACCTTCCATCTCCCATGCTTAGTCAAACATACGCCACCGTGCTACAAC
# B4: PD7 (5'-biotin) (ssDNA)
# DNA: B3 DNA
# Assays:
# [1] = target: T1, PD-1 (programmed cell death protein 1) (Mus musculus, UniProt Q02242 Q02242:25-169); experiment: ELONA; +++ class; details: tags: His tag, immobilized on Ni-NTA plate; label: 5'-biotin
# Procedure: (§1) Briefly, 200 ng of histidine-tag labeled PD-1 receptors (His tag-PD1 protein) were coated on nickel-nitrilotriacetic acid (Ni-NTA) coated plates and treated with aptamers conjugated at their 5′ end to biotin (Biotin-PD-1 aptamer). Binding of the aptamers to PD-1 was detected using streptavidin-HRP and ECL substrate. The aptamers tested were:
# (§2) The above aptamers were tested for binding to human, mouse, rat, rhesus monkey and/or canine PD-1 using the in vitro PD-1 binding assay depicted in FIG. 9.
# [2] = target: T1, PD-1 (programmed cell death protein 1); experiment: ELONA; ++ class; details: tags: His tag, immobilized on Ni-NTA plate; label: 5'-biotin
# Procedure: as §1, §2
# [3] = target: PD-1 (programmed cell death protein 1) (Homo sapiens, UniProt Q15116 Q15116:25-170); experiment: competition; inhibition of PD-1/PD-L1 interaction; details: tags: His tag, immobilized on Ni-NTA plate
# Procedure: Each of the above aptamer nucleotide sequences were tested for PD-1 antagonistic activity using an in vitro competition assay. Briefly, 200 ng of histidine-tag labeled PD-1 receptors (His tag-PD1 protein) were coated on nickel-nitrilotriacetic acid (Ni-NTA) coated plates and treated with Fc-labeled PDL-1 protein/aptamer mixture. Protein G-HRP and ECL substrate was used to determine the binding signal. The PD-1 antagonistic antibody J116 was used as a positive control and the negative control was performed in the absence of aptamer or antibody. A schematic representation of the competition assay is shown in FIG. 8, panels A and B. Each of the aptamer sequences (Cores 1-6 and Core 1(optimized)) were tested in the in vitro competition assay at a concentration of 200 nM. In the competition assay, each aptamer nucleotide sequence inhibited the interaction between PD-1 and PDL-1 as shown in FIG. 6.
# [4] = target: PD-1 (programmed cell death protein 1) extracellular domain (UniProt Q15116 Q15116:25-170); experiment: filter; total binding assay
# PD-1 (programmed cell death protein 1) extracellular domain, sequence (Q15116 25-170, one chain of several): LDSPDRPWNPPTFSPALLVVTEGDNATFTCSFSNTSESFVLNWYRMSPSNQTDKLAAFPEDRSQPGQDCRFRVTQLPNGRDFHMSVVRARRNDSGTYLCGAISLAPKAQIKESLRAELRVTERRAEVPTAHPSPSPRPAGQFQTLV
# T1 sequence (Q02242 25-169, one chain of several): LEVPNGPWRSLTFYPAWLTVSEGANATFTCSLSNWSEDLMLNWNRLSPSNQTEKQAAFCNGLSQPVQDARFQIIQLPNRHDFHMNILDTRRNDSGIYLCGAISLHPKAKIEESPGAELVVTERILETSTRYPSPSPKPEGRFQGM
# PD-1 (programmed cell death protein 1) (Homo sapiens, UniProt Q15116 Q15116:25-170), sequence (Q15116 25-170, one chain of several): as the sequence (Q15116 25-170, one chain of several) above
binder,measurement,setting,value
TATATTGTCC (ssDNA) [Core 2 (5'-biotin)],Kd,[1],< 20 nM
B1,Kd,[2],44.7 nM
CCATCTCCC (ssDNA) [Core 1],IC50,[3],31.2 nM
CCATCTCCC (ssDNA) [Core 1 (5'-biotin)],Kd,[2],44.7 nM
B2,Kd,[4],2.1 nM
B3,Kd,[4],9.7 nM
B4,Kd,[1],< 20 nM
